# In patent US20250163127A1:
# Where two headings read alike, the source gives them in different places.
# Key:
# CD28 (human) [1] = target: CD28 (human) (UniProt P10747); test: flow cytometry, Jurkat cells (CD28)
# CTLA4 (human) = test: flow cytometry, CHO cells stably expressing CTLA4
# PD-L1 (human) [2] = test: flow cytometry, CHO cells stably expressing PD-L1
# Target sequence in this assay (chain, as listed by the source): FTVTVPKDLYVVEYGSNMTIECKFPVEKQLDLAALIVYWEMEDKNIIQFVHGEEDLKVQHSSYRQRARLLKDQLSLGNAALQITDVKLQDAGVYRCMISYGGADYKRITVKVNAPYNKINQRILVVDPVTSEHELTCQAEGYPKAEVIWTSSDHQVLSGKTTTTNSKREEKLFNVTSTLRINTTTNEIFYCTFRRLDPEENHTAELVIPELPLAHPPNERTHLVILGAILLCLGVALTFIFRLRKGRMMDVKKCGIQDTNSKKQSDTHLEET
# CD226 (human) = target: T1, CD226 (human) (UniProt Q15762); test: flow cytometry, Fc fusion on Expi293 cells transfected with full-length human CD226
# T1 sequence: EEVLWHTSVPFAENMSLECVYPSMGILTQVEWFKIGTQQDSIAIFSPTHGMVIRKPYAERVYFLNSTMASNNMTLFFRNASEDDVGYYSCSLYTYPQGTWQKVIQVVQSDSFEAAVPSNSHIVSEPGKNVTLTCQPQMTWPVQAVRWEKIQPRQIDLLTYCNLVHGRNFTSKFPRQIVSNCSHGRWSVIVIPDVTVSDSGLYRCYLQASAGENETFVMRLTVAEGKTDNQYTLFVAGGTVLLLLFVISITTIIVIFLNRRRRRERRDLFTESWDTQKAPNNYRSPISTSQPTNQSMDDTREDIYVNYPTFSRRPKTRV
# CD80 (human) [3] = test: flow cytometry, cells expressing CD80, 20 nM
# CD80 (human), sequence (chain, as listed by the source): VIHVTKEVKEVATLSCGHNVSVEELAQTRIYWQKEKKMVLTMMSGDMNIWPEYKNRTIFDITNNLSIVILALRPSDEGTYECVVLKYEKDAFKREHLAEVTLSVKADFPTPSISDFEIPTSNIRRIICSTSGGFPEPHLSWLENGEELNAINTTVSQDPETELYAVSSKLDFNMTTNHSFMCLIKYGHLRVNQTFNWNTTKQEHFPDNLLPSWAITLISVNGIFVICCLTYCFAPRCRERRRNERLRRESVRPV
# CD86 (human) = CD86 (human) (UniProt P42081); test: flow cytometry, cells expressing the partner
# CD80 (human) [4] = target: CD80 (human) (UniProt P33681); test: flow cytometry, cells expressing the partner
# ICOSL (human) = target: T2, ICOSL (human) (UniProt O75144); test: flow cytometry, cells expressing the partner
# T2 sequence: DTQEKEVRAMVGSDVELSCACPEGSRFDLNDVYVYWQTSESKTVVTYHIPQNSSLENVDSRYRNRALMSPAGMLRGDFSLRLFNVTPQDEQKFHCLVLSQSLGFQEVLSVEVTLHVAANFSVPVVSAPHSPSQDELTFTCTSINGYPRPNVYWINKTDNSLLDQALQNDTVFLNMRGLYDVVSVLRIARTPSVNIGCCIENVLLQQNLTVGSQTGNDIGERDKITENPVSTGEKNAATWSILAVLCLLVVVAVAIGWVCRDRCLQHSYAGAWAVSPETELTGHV
# [5] = target: CD28, full-length, expressed on transfected cells (Homo sapiens (Human)) (UniProt P10747); test: flow cytometry, cells expressing target
# [6] = target: CTLA-4 (Homo sapiens (Human)) (UniProt P16410); test: flow cytometry, transfected cells
# CTLA-4 (Homo sapiens (Human)), sequence (P16410 36-223): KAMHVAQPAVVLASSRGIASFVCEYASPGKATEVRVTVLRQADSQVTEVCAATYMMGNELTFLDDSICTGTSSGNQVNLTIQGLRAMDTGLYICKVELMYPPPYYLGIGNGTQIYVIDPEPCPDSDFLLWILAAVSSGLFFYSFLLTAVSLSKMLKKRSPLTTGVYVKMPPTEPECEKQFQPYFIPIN
# [7] = target: ICOS (Homo sapiens (Human)) (UniProt Q9Y6W8); test: flow cytometry, transfected cells
# ICOS (Homo sapiens (Human)), sequence (Q9Y6W8 21-199 limits assumed): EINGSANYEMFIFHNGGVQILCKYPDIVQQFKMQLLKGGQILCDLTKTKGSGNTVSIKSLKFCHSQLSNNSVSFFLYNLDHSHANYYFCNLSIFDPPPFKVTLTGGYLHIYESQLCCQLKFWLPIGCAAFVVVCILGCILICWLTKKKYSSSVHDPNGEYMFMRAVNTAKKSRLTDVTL
# CD28 (human) [8] = target: CD28 (human) (UniProt P10747); test: flow cytometry, transfected cells
# PD-L1 (human) [9] = test: flow cytometry, CHO cells expressing PD-L1
# CD28 (human) [10] = target: CD28 (human) (UniProt P10747); test: flow cytometry, Jurkat cells (CD28); remark: listed apart in the source
# CTLA-4 (human) = test: flow cytometry, cells expressing CTLA-4
# PD-L1 (human) [11] = test: flow cytometry, cells expressing PD-L1
# CD28 (human) [12] = target: CD28 (human) (UniProt P10747); test: flow cytometry, cells expressing CD28
# human ICOSL (human) = target: T3, human ICOSL (human); test: flow cytometry, cells expressing human ICOSL
# T3 sequence: T2 sequence
# CTLA4 (human), sequence (chain, as listed by the source): as the sequence (P16410 36-223) above
# WT CD80 ECD-Fc (R&D) (Fc fusion), sequence (chain): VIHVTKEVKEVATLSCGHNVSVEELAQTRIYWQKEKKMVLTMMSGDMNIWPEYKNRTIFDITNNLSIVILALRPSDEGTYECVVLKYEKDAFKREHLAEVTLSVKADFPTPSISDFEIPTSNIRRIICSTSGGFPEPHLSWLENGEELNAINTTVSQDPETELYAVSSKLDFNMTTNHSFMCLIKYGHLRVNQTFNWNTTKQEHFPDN
# CTLA4-Fc, sequence (P16410 37-162 limits assumed): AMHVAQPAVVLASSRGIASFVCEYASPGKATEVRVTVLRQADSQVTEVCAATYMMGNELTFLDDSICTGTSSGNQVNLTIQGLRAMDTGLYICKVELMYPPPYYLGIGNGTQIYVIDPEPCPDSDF
substance,measurement,setting,value
CD80 variant A26E/E35D/M43I/M47L/L85Q/K86E/R94W IgV-Fc (Fc fusion),MFI at 33.3 nM,CD28 (human) [1],314 MFI
same,MFI at 33.3 nM,CTLA4 (human),2950 MFI
CD80 variant E24D/Q33L/E35D/M47V/K54R/L85Q IgV-Fc (Fc fusion),MFI at 33.3 nM,PD-L1 (human) [2],67100 MFI
same,MFI at 33.3 nM,CTLA4 (human),311000 MFI
CD80 variant E35D/D46V/M47I/A71G/F92V IgV-Fc (Fc fusion),MFI at 33.3 nM,CD28 (human) [1],7540 MFI
CD80 variant E35D/M47I/K54R/L85E IgV-Fc (Fc fusion),MFI at 33.3 nM,PD-L1 (human) [2],36900 MFI
same,MFI at 33.3 nM,CTLA4 (human),8660 MFI
CD80 variant E35D/M47L/A71G/L97Q IgV-Fc (Fc fusion),MFI at 33.3 nM,CD28 (human) [1],300 MFI
same,MFI at 33.3 nM,CTLA4 (human),226000 MFI
CD80 variant E35D/M47V/T62A/A71G/V83A/Y87H/L97M IgV-Fc (Fc fusion),MFI at 33.3 nM,PD-L1 (human) [2],77500 MFI
same,MFI at 33.3 nM,CD28 (human) [1],305 MFI
same,MFI at 33.3 nM,CTLA4 (human),18100 MFI
CD80 variant Q27H/E35D/M47L/L85Q/R94Q/E95K IgV-Fc (Fc fusion),MFI at 33.3 nM,PD-L1 (human) [2],36100 MFI
same,MFI at 33.3 nM,CD28 (human) [1],282 MFI
CD80 variant Q33L/E35D/M47V IgV-Fc (Fc fusion),MFI at 33.3 nM,PD-L1 (human) [2],47900 MFI
same,MFI at 33.3 nM,CTLA4 (human),47600 MFI
CD80 variant Q33L/E35D/M47V/T79A IgV-Fc (Fc fusion),MFI at 33.3 nM,PD-L1 (human) [2],62100 MFI
same,MFI at 33.3 nM,CTLA4 (human),28900 MFI
CD80 variant Q33R/E35D/D46E/M47I IgV-Fc (Fc fusion),MFI at 33.3 nM,CD28 (human) [1],303 MFI
same,MFI at 33.3 nM,CTLA4 (human),3560 MFI
CD80 variant Q33R/E35D/K37E/M47V/L85Q IgV-Fc (Fc fusion),MFI at 33.3 nM,PD-L1 (human) [2],44400 MFI
same,MFI at 33.3 nM,CD28 (human) [1],258 MFI
CD80 variant S15P/Q33L/E35D/M47L/L85Q IgV-Fc (Fc fusion),MFI at 33.3 nM,CD28 (human) [1],266 MFI
CD112 A112V (Fc fusion),MFI,CD226 (human),152000 MFI
CTLA4-Fc (from UniProt P16410) (Fc fusion),MFI at 20 nM,CD80 (human) [3],200000 MFI
CTLA-4 ECD-Fc L12P/A26T (Fc fusion),MFI,CD86 (human),276000 MFI
same,MFI ratio to WT (ΔWT),CD86 (human),0.4 fold
same,MFI,CD80 (human) [4],1024 MFI
same,MFI,ICOSL (human),928 MFI
CTLA-4 ECD-Fc L12P/A26T/L63P (Fc fusion),MFI,CD86 (human),500000 MFI
same,MFI,CD80 (human) [4],2400 MFI
same,MFI,ICOSL (human),891 MFI
CTLA-4 ECD-Fc L12P/A26T/L63P/L98Q/Y105L (Fc fusion),MFI,CD86 (human),762000 MFI
same,MFI,CD80 (human) [4],829 MFI
same,MFI,ICOSL (human),873 MFI
CTLA-4 ECD-Fc L63P (Fc fusion),MFI,CD86 (human),596000 MFI
same,MFI,CD80 (human) [4],3930 MFI
same,MFI,ICOSL (human),966 MFI
CTLA-4 ECD-Fc L63P/L98Q/Y105L (Fc fusion),MFI,CD86 (human),411000 MFI
same,MFI,CD80 (human) [4],4720 MFI
same,MFI,ICOSL (human),1800 MFI
CTLA-4 ECD-Fc L98Q/Y105L (Fc fusion),MFI,CD86 (human),685000 MFI
same,MFI,CD80 (human) [4],3860 MFI
same,MFI,ICOSL (human),1190 MFI
CTLA-4 ECD-Fc L98R/N110K (Fc fusion),MFI,CD86 (human),665000 MFI
same,MFI,CD80 (human) [4],2110 MFI
ICOSL ECD-Fc N30D/N52S/L67P/Q100K/D217G/R221K/T225S (Fc fusion),MFI,[5],1990 MFI
ICOSL ECD-Fc N52H/N57Y/Q100R/F172S (Fc fusion),MFI,[6],606000 MFI
same,MFI,[7],238000 MFI
ICOSL ECD-Fc N52S/E90A (Fc fusion),MFI,[5],31100 MFI
ICOSL ECD-Fc N52S/T113E (Fc fusion),MFI,[5],54 MFI
ICOSL-Fc N52G/Q100A (Fc fusion),MFI,CD28 (human) [8],98700 MFI
same,MFI,[7],303000 MFI
ICOSL-Fc N52H/N57Y/Q100K (Fc fusion),MFI,CD28 (human) [8],142000 MFI
same,MFI,[7],214000 MFI
ICOSL-Fc N52H/N57Y/Q100R (Fc fusion),MFI,CD28 (human) [8],142000 MFI
same,MFI ratio to WT (ΔWT),CD28 (human) [8],6.4 fold
same,MFI,[6],817000 MFI
same,MFI ratio to WT (ΔWT),[6],2.47 fold
same,MFI,[7],200000 MFI
same,MFI ratio to WT (ΔWT),[7],0.94 fold
WT CD80 ECD-Fc (R&D) (Fc fusion),MFI at 33.3 nM,PD-L1 (human) [2],7940 MFI
same,MFI at 33.3 nM,CD28 (human) [1],7630 MFI
same,MFI at 33.3 nM,PD-L1 (human) [9],11900 MFI
same,MFI at 33.3 nM,CD28 (human) [10],18000 MFI
variant CD80 A91G (Fc fusion),MFI,CTLA-4 (human),200 MFI
same,MFI,PD-L1 (human) [11],85 MFI
variant CD80 A91G/S103P (Fc fusion),MFI,PD-L1 (human) [11],9 MFI
same,MFI,CD28 (human) [12],39 MFI
variant CD80 E24G/L25P/L70Q/A91G/I118V/T120S/N152T (Fc fusion),MFI,CTLA-4 (human),38 MFI
same,MFI,CD28 (human) [12],26 MFI
variant CD80 I67T/L70Q/A91G/I118V/T120S (Fc fusion),MFI,CTLA-4 (human),160 MFI
same,parental ratio,CTLA-4 (human),0.77
same,MFI,PD-L1 (human) [11],5 MFI
same,parental ratio,PD-L1 (human) [11],0.08
same,MFI,CD28 (human) [12],98 MFI
same,parental ratio,CD28 (human) [12],1.03
variant CD80 K89E/T130A (Fc fusion),MFI,CTLA-4 (human),148 MFI
variant CD80 L65H/D90G/T110A/F116L (Fc fusion),MFI,CTLA-4 (human),121 MFI
same,MFI,CD28 (human) [12],33 MFI
variant CD80 M38T/L70Q/E77G/A91G/I118V/T120S/T130A/N152T (Fc fusion),MFI,CD28 (human) [12],61 MFI
variant CD80 M38V/T41D/M43I/W50G/D76G/V83A/K89E/I118V/T120S/I126V/T130A (Fc fusion),MFI,CD28 (human) [12],5 MFI
variant CD80 R29H/E52G/D90N/I118V/T120S/T130A (Fc fusion),MFI,CTLA-4 (human),141 MFI
same,MFI,CD28 (human) [12],66 MFI
variant CD80 R29H/E52G/L70R/E88G/A91G/T130A (Fc fusion),MFI,CTLA-4 (human),119 MFI
same,parental ratio,CTLA-4 (human),0.57
same,MFI,PD-L1 (human) [11],5 MFI
same,parental ratio,PD-L1 (human) [11],0.08
same,MFI,CD28 (human) [12],100 MFI
variant CD80 T28S/L70Q/A91G/E95K/I118V/T120S/I126V/T130A/K169E (Fc fusion),MFI,CTLA-4 (human),65 MFI
same,parental ratio,CTLA-4 (human),0.31
same,MFI,PD-L1 (human) [11],6 MFI
same,parental ratio,PD-L1 (human) [11],0.08
same,MFI,CD28 (human) [12],32 MFI
same,parental ratio,CD28 (human) [12],0.34
variant CD80 V20L/L70Q/A91S/I118V/T120S/T130A (Fc fusion),MFI,CTLA-4 (human),200 MFI
same,parental ratio,CTLA-4 (human),0.96
same,MFI,PD-L1 (human) [11],9 MFI
same,parental ratio,PD-L1 (human) [11],0.13
same,MFI,CD28 (human) [12],105 MFI
variant CTLA-4 ECD-Fc G29W/L98Q/Y105L (Fc fusion),MFI,human ICOSL (human),570 MFI
variant CTLA-4 ECD-Fc G29W/M56T/L98Q/Y105L (Fc fusion),MFI,human ICOSL (human),612 MFI
variant CTLA-4 ECD-Fc G29W/M56T/S72G/L98Q/Y105L (Fc fusion),MFI,human ICOSL (human),534 MFI
variant CTLA-4 ECD-Fc L12F/R16H/G29W/L98Q/Y105L (Fc fusion),MFI,human ICOSL (human),862 MFI
variant CTLA-4 ECD-Fc L12F/R16H/G29W/M56T/S72G/L98Q/Y105L (Fc fusion),MFI,human ICOSL (human),613 MFI
variant CTLA-4 ECD-Fc M56T/L98Q/Y105L (Fc fusion),MFI,human ICOSL (human),700 MFI
variant PD-L1 G15A/V129D Fc fusion,MFI at 20 nM,CD80 (human) [3],128 MFI
variant PD-L1 V93E/V129D Fc fusion,MFI at 20 nM,CD80 (human) [3],150 MFI
